B1: UDP-glucuronosyltransferase 2B7 (Homo sapiens), P16662 (parent)
chain: MSVKWTSVILLIQLSFCFSSGNCGKVLVWAAEYSHWMNIKTILDELIQRGHEVTVLASSASILFDPNNSSALKIEIYPTSLTKTELENFIMQQIKRWSDLPKDTFWLYFSQVQEIMSIFGDITRKFCKDVVSNKKFMKKVQESRFDVIFADAIFPCSELLAELFNIPFVYSLSFSPGYTFEKHSGGFIFPPSYVPVVMSELTDQMTFMERVKNMIYVLYFDFWFEIFDMKKWDQFYSEVLGRPTTLSETMGKADVWLIRNSWNFQFPYPLLPNVDFVGGLHCKPAKPLPKEMEDFVQSSGENGVVVFSLGSMVSNMTEERANVIASALAQIPQKVLWRFDGNKPDTLGLNTRLYKWIPQNDLLGHPKTRAFITHGGANGIYEAIYHGIPMVGIPLFADQPDNIAHMKARGAAVRVDFNTMSSTDLLNALKRVINDPSYKENVMKLSRIQHDQPVKPLDRAVFWIEFVMRHKGAKHLRVAAHDLTWFQYHSLDVIGFLLVCVATVIFIVTKCCLFCFWKFARKAKKGKND
partner: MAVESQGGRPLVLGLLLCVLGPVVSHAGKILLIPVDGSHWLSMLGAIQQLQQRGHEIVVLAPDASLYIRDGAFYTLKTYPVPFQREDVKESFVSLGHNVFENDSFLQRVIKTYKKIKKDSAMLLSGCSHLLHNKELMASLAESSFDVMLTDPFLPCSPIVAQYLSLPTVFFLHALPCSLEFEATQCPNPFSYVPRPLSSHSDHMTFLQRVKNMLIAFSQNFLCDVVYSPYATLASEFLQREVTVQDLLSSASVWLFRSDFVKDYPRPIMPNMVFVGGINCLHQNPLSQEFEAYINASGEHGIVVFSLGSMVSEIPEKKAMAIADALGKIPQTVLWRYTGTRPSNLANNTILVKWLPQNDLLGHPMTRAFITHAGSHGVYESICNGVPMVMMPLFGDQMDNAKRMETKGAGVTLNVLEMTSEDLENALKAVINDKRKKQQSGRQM
B2: UDP-glucuronosyltransferase 2B7 (Homo sapiens), P16662 (parent)
chain: B1 chain
partner: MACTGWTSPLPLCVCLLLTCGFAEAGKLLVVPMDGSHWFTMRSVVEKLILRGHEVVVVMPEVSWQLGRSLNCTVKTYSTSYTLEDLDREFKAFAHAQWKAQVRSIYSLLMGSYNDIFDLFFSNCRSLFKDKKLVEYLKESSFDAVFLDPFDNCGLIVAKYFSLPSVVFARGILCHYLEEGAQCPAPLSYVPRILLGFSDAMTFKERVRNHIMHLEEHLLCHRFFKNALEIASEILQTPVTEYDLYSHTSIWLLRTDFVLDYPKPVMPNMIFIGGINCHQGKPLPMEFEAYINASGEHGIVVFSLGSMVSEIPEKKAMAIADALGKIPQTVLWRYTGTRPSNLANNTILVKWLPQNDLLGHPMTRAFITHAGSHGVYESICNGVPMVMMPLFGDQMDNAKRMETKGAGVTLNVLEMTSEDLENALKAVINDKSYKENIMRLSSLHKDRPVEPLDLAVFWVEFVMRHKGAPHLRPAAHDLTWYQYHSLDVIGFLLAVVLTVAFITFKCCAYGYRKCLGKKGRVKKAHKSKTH
B3: UDP-glucuronosyltransferase 1A9 (Homo sapiens), O60656-1 (parent)
chain: B2 partner
partner: B1 partner
B4: UDP-glucuronosyltransferase 2B7 (Homo sapiens), P16662 (parent)
chain: B1 chain
partner: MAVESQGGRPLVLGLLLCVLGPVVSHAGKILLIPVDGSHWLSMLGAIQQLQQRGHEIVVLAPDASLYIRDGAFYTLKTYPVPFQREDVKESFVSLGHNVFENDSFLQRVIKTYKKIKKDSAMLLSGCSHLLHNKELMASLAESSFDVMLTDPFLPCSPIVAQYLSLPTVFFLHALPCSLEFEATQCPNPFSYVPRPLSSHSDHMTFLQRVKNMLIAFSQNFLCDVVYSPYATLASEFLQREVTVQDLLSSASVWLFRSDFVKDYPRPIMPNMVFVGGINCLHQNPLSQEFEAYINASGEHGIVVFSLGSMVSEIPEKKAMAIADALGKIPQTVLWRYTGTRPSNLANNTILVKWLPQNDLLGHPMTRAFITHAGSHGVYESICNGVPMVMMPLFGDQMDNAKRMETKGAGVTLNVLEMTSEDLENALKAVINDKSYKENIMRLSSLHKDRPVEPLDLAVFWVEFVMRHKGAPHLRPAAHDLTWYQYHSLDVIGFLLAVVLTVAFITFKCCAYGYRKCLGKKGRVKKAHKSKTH

Variants of: B1
Details: with UGT1A1, P22309-2

Variant	effect of a mutation on the interaction
MSVKWTSVILLIQLSFCFSSGNCGKVLVWAAEYSHWMNIKTILDELIQRGHEVTVLASSASILFDPNNSSALKIEIYPTSLTKTELENFIMQQIKRWSDLPKDTFWLYFSQVQEIMSIFGDITRKFCKDVVSNKKFMKKVQESRFDVIFADAIFPCSELLAELFNIPFVYSLSFSPGYTFEKHSGGFIFPPSYVPVVMSELTDQMTFMERVKNMIYVLYFDFWFEIFDMKKWDQFYSEVLGRPTTLSETMGKADVWLIRNSWNFQFPYPLLPNVDFVGGLHCKPAKPLPKEMEDFVQSSGENGVVVFSLGSMVSNMTEERANVIASALAQIPQKVLWRFDGNKPDTLGLNTRLYKWIPQNDLLGHPKTRAFITHGGANGIYEAIYHGIPMVGIPLFANQPDNIAHMKARGAAVRVDFNTMSSTDLLNALKRVINDPSYKENVMKLSRIQHDQPVKPLDRAVFWIEFVMRHKGAKHLRVAAHDLTWFQYHSLDVIGFLLVCVATVIFIVTKCCLFCFWKFARKAKKGKND [D398N]	disrupting interaction strength
MSVKWTSVILLIQLSFCFSSGNCGKVLVWAAEYSHWMNIKTILDELIQRGHEVTVLASSASILFDPNNSSSLKIEIYPTSLTKTELENFIMQQIKRWSDLPKDTFWLYFSQVQEIMSIFGDITRKFCKDVVSNKKFMKKVQESRFDVIFADAIFPCSELLAELFNIPFVYSLSFSPGYTFEKHSGGFIFPPSYVPVVMSELTDQMTFMERVKNMIYVLYFDFWFEIFDMKKWDQFYSEVLGRPTTLSETMGKADVWLIRNSWNFQFPYPLLPNVDFVGGLHCKPAKPLPKEMEDFVQSSGENGVVVFSLGSMVSNMTEERANVIASALAQIPQKVLWRFDGNKPDTLGLNTRLYKWIPQNDLLGHPKTRAFITHGGANGIYEAIYHGIPMVGIPLFADQPDNIAHMKARGAAVRVDFNTMSSTDLLNALKRVINDPSYKENVMKLSRIQHDQPVKPLDRAVFWIEFVMRHKGAKHLRVAAHDLTWFQYHSLDVIGFLLVCVATVIFIVTKCCLFCFWKFARKAKKGKND [A71S]	with no effect

Variants of: B2
Details: with UGT1A9, O60656-1

Variant	effect of a mutation on the interaction
MSVKWTSVILLIQLSFCFSSGNCGKVLVWAAEYSHWMNIKTILDELIQRGHEVTVLASSASILFDPNNSSSLKIEIYPTSLTKTELENFIMQQIKRWSDLPKDTFWLYFSQVQEIMSIFGDITRKFCKDVVSNKKFMKKVQESRFDVIFADAIFPCSELLAELFNIPFVYSLSFSPGYTFEKHSGGFIFPPSYVPVVMSELTDQMTFMERVKNMIYVLYFDFWFEIFDMKKWDQFYSEVLGRPTTLSETMGKADVWLIRNSWNFQFPYPLLPNVDFVGGLHCKPAKPLPKEMEDFVQSSGENGVVVFSLGSMVSNMTEERANVIASALAQIPQKVLWRFDGNKPDTLGLNTRLYKWIPQNDLLGHPKTRAFITHGGANGIYEAIYHGIPMVGIPLFADQPDNIAHMKARGAAVRVDFNTMSSTDLLNALKRVINDPSYKENVMKLSRIQHDQPVKPLDRAVFWIEFVMRHKGAKHLRVAAHDLTWFQYHSLDVIGFLLVCVATVIFIVTKCCLFCFWKFARKAKKGKND [A71S]	with no effect
MSVKWTSVILLIQLSFCFSSGNCGKVLVWAAEYSHWMNIKTILDELIQRGHEVTVLASSASILFDPNNSSALKIEIYPTSLTKTELENFIMQQIKRWSDLPKDTFWLYFSQVQEIMSIFGDITRKFCKDVVSNKKFMKKVQESRFDVIFADAIFPCSELLAELFNIPFVYSLSFSPGYTFEKHSGGFIFPPSYVPVVMSELTDQMTFMERVKNMIYVLYFDFWFEIFDMKKWDQFYSEVLGRPTTLSETMGKADVWLIRNSWNFQFPYPLLPNVDFVGGLHCKPAKPLPKEMEDFVQSSGENGVVVFSLGSMVSNMTEERANVIASALAQIPQKVLWRFDGNKPDTLGLNTRLYKWIPQNDLLGHPKTRAFITHGGANGIYEAIYHGIPMVGIPLFANQPDNIAHMKARGAAVRVDFNTMSSTDLLNALKRVINDPSYKENVMKLSRIQHDQPVKPLDRAVFWIEFVMRHKGAKHLRVAAHDLTWFQYHSLDVIGFLLVCVATVIFIVTKCCLFCFWKFARKAKKGKND [D398N]	with no effect

Variants of: B3
Details: with UGT1A1, P22309-2

Variant	effect of a mutation on the interaction
MACTGWTSPLPLCVCLLLTCGFAEAGKLLVVPTDGSHWFTMRSVVEKLILRGHEVVVVMPEVSWQLGRSLNCTVKTYSTSYTLEDLDREFKAFAHAQWKAQVRSIYSLLMGSYNDIFDLFFSNCRSLFKDKKLVEYLKESSFDAVFLDPFDNCGLIVAKYFSLPSVVFARGILCHYLEEGAQCPAPLSYVPRILLGFSDAMTFKERVRNHIMHLEEHLLCHRFFKNALEIASEILQTPVTEYDLYSHTSIWLLRTDFVLDYPKPVMPNMIFIGGINCHQGKPLPMEFEAYINASGEHGIVVFSLGSMVSEIPEKKAMAIADALGKIPQTVLWRYTGTRPSNLANNTILVKWLPQNDLLGHPMTRAFITHAGSHGVYESICNGVPMVMMPLFGDQMDNAKRMETKGAGVTLNVLEMTSEDLENALKAVINDKSYKENIMRLSSLHKDRPVEPLDLAVFWVEFVMRHKGAPHLRPAAHDLTWYQYHSLDVIGFLLAVVLTVAFITFKCCAYGYRKCLGKKGRVKKAHKSKTH [M33T]	with no effect
MACTGWTSPLPLCVCLLLTCGFAEAGKLLVVPMDGSHWFTMRSVVEKLILRGHEVVVVMPEVSWQLGRSLNCTVKTYSTSYTLEDLDREFKAFAHAQWKAQVRSIYSLLMGSYNDIFDLFFSNCRSLFKDKKLVEYLKESSFDAVFLDPFDNCGLIVAKYFSLPSVVFARGILCHYLEEGAQCPAPLSYVPRILLGFSDAMTFKERVRNHIMHLEEHLLCHRFFKNALEIASEILQTPVTEYDLYSHTSIWLLRTNFVLDYPKPVMPNMIFIGGINCHQGKPLPMEFEAYINASGEHGIVVFSLGSMVSEIPEKKAMAIADALGKIPQTVLWRYTGTRPSNLANNTILVKWLPQNDLLGHPMTRAFITHAGSHGVYESICNGVPMVMMPLFGDQMDNAKRMETKGAGVTLNVLEMTSEDLENALKAVINDKSYKENIMRLSSLHKDRPVEPLDLAVFWVEFVMRHKGAPHLRPAAHDLTWYQYHSLDVIGFLLAVVLTVAFITFKCCAYGYRKCLGKKGRVKKAHKSKTH [D256N]	with no effect
MAYTGWTSPLPLCVCLLLTCGFAEAGKLLVVPMDGSHWFTMRSVVEKLILRGHEVVVVMPEVSWQLGRSLNCTVKTYSTSYTLEDLDREFKAFAHAQWKAQVRSIYSLLMGSYNDIFDLFFSNCRSLFKDKKLVEYLKESSFDAVFLDPFDNCGLIVAKYFSLPSVVFARGILCHYLEEGAQCPAPLSYVPRILLGFSDAMTFKERVRNHIMHLEEHLLCHRFFKNALEIASEILQTPVTEYDLYSHTSIWLLRTDFVLDYPKPVMPNMIFIGGINCHQGKPLPMEFEAYINASGEHGIVVFSLGSMVSEIPEKKAMAIADALGKIPQTVLWRYTGTRPSNLANNTILVKWLPQNDLLGHPMTRAFITHAGSHGVYESICNGVPMVMMPLFGDQMDNAKRMETKGAGVTLNVLEMTSEDLENALKAVINDKSYKENIMRLSSLHKDRPVEPLDLAVFWVEFVMRHKGAPHLRPAAHDLTWYQYHSLDVIGFLLAVVLTVAFITFKCCAYGYRKCLGKKGRVKKAHKSKTH [C3Y]	with no effect

Variants of: B4
Details: with UGT1A1, P22309-1

Variant	effect of a mutation on the interaction
MSVKWTSVILLIQLSFCFSSGNCGKVLVWAAEYSHWMNIKTILDELIQRGHEVTVLASSASILFDPNNSSALKIEIYPTSLTKTELENFIMQQIKRWSDLPKDTFWLYFSQVQEIMSIFGDITRKFCKDVVSNKKFMKKVQESRFDVIFADAIFPCSELLAELFNIPFVYSLSFSPGYTFEKHSGGFIFPPSYVPVVMSELTDQMTFMERVKNMIYVLYFDFWFEIFDMKKWDQFYSEVLGRPTTLSETMGKADVWLIRNSWNFQFPYPLLPNVDFVGGLHCKPAKPLPKEMEDFVQSSGENGVVVFSLGSMVSNMTEERANVIASALAQIPQKVLWRFDGNKPDTLGLNTRLYKWIPQNDLLGHPKTRAFITHGGANGIYEAIYHGIPMVGIPLFANQPDNIAHMKARGAAVRVDFNTMSSTDLLNALKRVINDPSYKENVMKLSRIQHDQPVKPLDRAVFWIEFVMRHKGAKHLRVAAHDLTWFQYHSLDVIGFLLVCVATVIFIVTKCCLFCFWKFARKAKKGKND [D398N]	with no effect
MSVKWTSVILLIQLSFCFSSGNCGKVLVWAAEYSHWMNIKTILDELIQRGHEVTVLASSASILFDPNNSSSLKIEIYPTSLTKTELENFIMQQIKRWSDLPKDTFWLYFSQVQEIMSIFGDITRKFCKDVVSNKKFMKKVQESRFDVIFADAIFPCSELLAELFNIPFVYSLSFSPGYTFEKHSGGFIFPPSYVPVVMSELTDQMTFMERVKNMIYVLYFDFWFEIFDMKKWDQFYSEVLGRPTTLSETMGKADVWLIRNSWNFQFPYPLLPNVDFVGGLHCKPAKPLPKEMEDFVQSSGENGVVVFSLGSMVSNMTEERANVIASALAQIPQKVLWRFDGNKPDTLGLNTRLYKWIPQNDLLGHPKTRAFITHGGANGIYEAIYHGIPMVGIPLFADQPDNIAHMKARGAAVRVDFNTMSSTDLLNALKRVINDPSYKENVMKLSRIQHDQPVKPLDRAVFWIEFVMRHKGAKHLRVAAHDLTWFQYHSLDVIGFLLVCVATVIFIVTKCCLFCFWKFARKAKKGKND [A71S]	with no effect

Reference: IntAct's records for PubMed 27857056
